Test results taken from paper PMC3448977 (Biochemistry, 2012).

T1: Human BMP-9 (human, UniProt Q9UK05 320-429)
T1 sequence (looked up): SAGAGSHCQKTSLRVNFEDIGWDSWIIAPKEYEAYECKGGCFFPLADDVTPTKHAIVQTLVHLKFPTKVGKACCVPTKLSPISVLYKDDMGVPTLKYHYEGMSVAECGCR

B1: Alk1 extracellular domain with Arg53-Glu54-Leu55 swapped for Asp-Phe-Gln of Alk3 (Alk1-DFQ) (domain or fragment, human)
chain: GSHMDPVKPSRGPLVTCTCESPHCKGPTCRGAWCTVVLVREEGRHPQEHRGCGNLHDFQCRGRPTEFVNHYCCDSHLCNHNVSLVLEATQPPSEQPGTDGQ

Tests used:
BMP-9 (Homo sapiens) = BMP-9 (Homo sapiens) (UniProt Q9UK05); conditions: cited from earlier work
Human BMP-9 = target: T1, Human BMP-9; assay: SPR

Molecule | Kd (BMP-9 (Homo sapiens)) [nM] | Kd (Human BMP-9) [nM]
Fc-Alk1 ECD (from UniProt P37023) | 2.5 | –
B1 | – | 5700
